This note sets out measurements from patent publication US20230365705A1 (DYNAMICURE BIOTECHNOLOGY, published 2023).

Test [1] has as its target T1, Human CD93 recombinant protein (Sino Biological Inc, Catalog #12589-H08H) (human, UniProt Q9NPY3 22-580).
T1 construct: Biotinylated (EZ-LINK NHS-PEG4 biotin) in the BLI assays; also called hCD93; His-tagged human CD93
T1 sequence (looked up): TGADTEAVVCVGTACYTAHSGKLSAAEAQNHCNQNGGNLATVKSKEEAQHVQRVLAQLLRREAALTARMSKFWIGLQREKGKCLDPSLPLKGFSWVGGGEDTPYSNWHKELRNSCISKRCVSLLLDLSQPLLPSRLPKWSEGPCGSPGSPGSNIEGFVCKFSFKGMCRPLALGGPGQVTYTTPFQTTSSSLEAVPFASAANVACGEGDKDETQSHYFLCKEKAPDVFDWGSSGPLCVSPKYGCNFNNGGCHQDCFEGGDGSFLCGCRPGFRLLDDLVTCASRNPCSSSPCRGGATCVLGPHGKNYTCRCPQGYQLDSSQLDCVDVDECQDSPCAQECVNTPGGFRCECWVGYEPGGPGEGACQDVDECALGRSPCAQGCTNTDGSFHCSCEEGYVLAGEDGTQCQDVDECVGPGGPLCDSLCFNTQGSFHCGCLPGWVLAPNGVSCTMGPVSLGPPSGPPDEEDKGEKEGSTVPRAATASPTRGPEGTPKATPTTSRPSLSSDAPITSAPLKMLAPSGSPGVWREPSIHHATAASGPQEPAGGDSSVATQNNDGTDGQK
The test can be described thus: BLI (Octet QKe), biotinylated human CD93 on streptavidin biosensors. On the procedure: The binding affinity of anti-CD93 antibodies was determined with bio-layer interferometry using Octet QKe (Fortebio). […] Human CD93 recombinant protein (Sino Biological Inc, Catalog #12589-H08H) was biotinylated using EZ-LINK NHS-PEG4 biotin (Thermo Fisher Scientific). Streptavidin biosensors (Fortebio) were used to load biotinylated CD93 protein (300 seconds in 5 μg/ml). Baseline was stabilized for 60 seconds in 1×kinetics buffer (Fortebio) before anti-CD93 antibodies, at a serial dilution, were allowed to associate for 300 seconds with captured protein. Then the sensors were dissociated in 1× kinetics buffer for 600 seconds. […] (FIG. 41).
On the technique in general: Biolayer interferometry detects binding as a change in optical thickness at a sensor tip.

Test [2] deals with T2, Human CD93 on cells (human CD93 expressing CHO cells; HUVEC, U937 and KG1a cells) (human, UniProt Q9NPY3 22-652).
T2 construct: whole, on cells; also called hCD93 expressing CHO cells; hCD93 CHO cells
T2 sequence (looked up): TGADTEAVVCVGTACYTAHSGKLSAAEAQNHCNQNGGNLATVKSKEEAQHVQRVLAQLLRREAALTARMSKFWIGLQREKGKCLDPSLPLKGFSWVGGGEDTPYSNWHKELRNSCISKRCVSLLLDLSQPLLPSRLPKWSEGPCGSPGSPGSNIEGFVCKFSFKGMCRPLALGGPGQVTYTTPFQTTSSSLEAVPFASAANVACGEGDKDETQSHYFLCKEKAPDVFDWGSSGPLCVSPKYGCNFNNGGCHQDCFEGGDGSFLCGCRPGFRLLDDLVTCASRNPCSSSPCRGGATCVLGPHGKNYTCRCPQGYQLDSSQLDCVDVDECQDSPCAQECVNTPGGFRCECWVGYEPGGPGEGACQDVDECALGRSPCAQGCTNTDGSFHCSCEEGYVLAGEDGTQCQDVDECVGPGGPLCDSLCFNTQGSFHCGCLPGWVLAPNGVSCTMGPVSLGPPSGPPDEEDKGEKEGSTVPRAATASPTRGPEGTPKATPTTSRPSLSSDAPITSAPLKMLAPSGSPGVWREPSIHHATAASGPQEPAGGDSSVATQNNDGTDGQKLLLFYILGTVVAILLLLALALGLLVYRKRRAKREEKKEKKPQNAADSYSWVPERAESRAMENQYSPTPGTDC
The test can be described thus: flow cytometry on human CD93 expressing CHO cells. On the procedure:
Human CD93 expressing CHO cells were detached by incubation with TrypLE reagents (Thermo Fisher), which preserves the integrity of CD93 on the cell surface. Then the cells were incubated with serially diluted anti-CD93 antibodies for 30 minutes in 4° C. After washing by FACS buffer, the cells were incubated with Alexa Fluor 647 conjugated anti-human IgG (Jackson ImmunoResearch) for 30 minutes in 4° C. After washing by FACS buffer twice, the samples were acquired in NovoCyte Flow Cytometer and analyzed by NovoExpress software.
(In general: A flow cytometer gives signals particle by particle.)

Test [3] has as its target T1, Human CD93 recombinant protein (Sino …). The experiment in a line: ELISA, His-tagged human CD93 coated, OD450. On the procedure: His-tagged human CD93 was coated onto a 96 well plate at 1 μg/mL in 1×PBS overnight at 4° C. The plate was washed with ELISA wash buffer (Boston BioProduct, Inc.) and the wells were blocked with ELISA blocking buffer for 1 hour at 37° C. […] The plate was washed with ELISA wash Buffer. HRP-conjugated anti-human Fc antibody was incubated for 1 hour at 37° C. The plate was washed with ELISA wash Buffer. HRP substrate was added for indirect detection of the antibodies binding to CD93.

For test [4] the target is unchanged. The experiment in a line: summary table, column ELISA (hCD93).
For test [5] the target is unchanged. The test can be described thus: ELISA, hCD93-His coated, OD450. Here is the method: His-tagged human CD93 was coated onto a 96 well plate at 1 μg/mL in 1×PBS overnight at 4° C. The plate was washed with ELISA wash buffer (Boston BioProduct, Inc.) and the wells were blocked with ELISA blocking buffer for 1 hour at 37° C. Purified antibodies were serially diluted in ELISA blocking buffer (Boston BioProduct, Inc.) and incubated on the receptor for 1 hour at 37° C. The plate was washed with ELISA wash Buffer. […] The plate was washed with ELISA wash buffer. HRP substrate was added for indirect detection of the antibodies binding to CD93.
For orientation: An ELISA detects its analyte on a solid surface through an enzyme-linked reagent.

Test [6] shares this target. The experiment in a line: summary table, column Octet (hCD93).
In test [7] the target is rh VEGFA (recombinant human VEGFA) (human, UniProt P15692-4 27-191, limits assumed). The experiment in a line: ELISA, antigen coated at 1 µg/mL. On the procedure:
(§1) His-tagged human CD93, cyno CD93, human VEGFA, and mouse VEGFA were coated onto a 96 well plate at 1 μg/mL in 1× PBS overnight at 4′C. The plate was washed with ELISA wash buffer (Boston BioProduct, Inc.) and the wells were blocked with 3% BSA/PBS ELISA blocking buffer for 1 hour at 37′C. […] The plate was washed with ELISA wash Buffer. HRP conjugated Anti-human Fc was added and incubated for one hour at 37° C. The plate was washed with ELISA wash buffer and read in a microplate reader at 405 nm.

Test [8] has as its target T3, rm VEGFA (recombinant mouse VEGFA) (mouse, UniProt Q00731-2 27-190, limits assumed).
T3 sequence (looked up): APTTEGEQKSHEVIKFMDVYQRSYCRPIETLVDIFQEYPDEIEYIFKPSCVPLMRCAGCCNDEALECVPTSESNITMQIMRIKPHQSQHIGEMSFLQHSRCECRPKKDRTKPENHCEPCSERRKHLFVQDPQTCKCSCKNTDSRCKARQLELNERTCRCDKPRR
The experiment in a line: ELISA, mVEGFA coated at 1 µg/mL, anti-human Fc HRP; single bars, concentration not given. On the procedure: as §1

B1: 7F3-hIgG1 (recombinant chimeric 7F3) (antibody, V domains shown)
VH: QVQLQQSGADLVRPGASVKLSCKASGYTFTDYEMHWVKQTPVYGLEWIGGIDPETGDTAYNQNFKGKATLTADKSSSAAYMELRSLTSEDSAVYYCTNYGNLYYYAMDYWGQGTSVTVSS
VL: ENVLTQSPAIMSASPGEKVTMTCRASSSVSSSYLHWYQQKSGASPKLWIYSTSNLAFGVPARFSGSGSGTSYSLTISSVEAEDAATYYCQQYSGYPLTFGSGTKLEIK
notes: also called chimeric 7F3-hIgG1; recombinant 7F3
The Kd is the equilibrium constant for the complex coming apart. What is called koff is the rate constant with which the complex falls apart. As usually defined, the kon is a measure of how fast the partners come together. What is called EC50 is the concentration giving half of the maximal effect. On to B1, for which the Kd in test [1] and in test [6] was 0.588 nM each time. Further, the koff in test [1] was found to be 0.000335 s⁻¹. Further, the kon in test [1] is 570000 M⁻¹ s⁻¹. The concentration for a half-maximal effect (EC50) was 0.4 nM in test [2], 0.041 nM in test [3], 0.041 nM in test [4] and 0.02 nM in test [5]. The binding result in test [7] and in test [8] was “no binding” in each case.
